Read-outs that look alike come from different tables or passages of the source.

Data set [1] concerns the target T1, N-HisPurβ (Purine-rich element binding protein B) (UniProt O35295 1-324).
T1 sequence: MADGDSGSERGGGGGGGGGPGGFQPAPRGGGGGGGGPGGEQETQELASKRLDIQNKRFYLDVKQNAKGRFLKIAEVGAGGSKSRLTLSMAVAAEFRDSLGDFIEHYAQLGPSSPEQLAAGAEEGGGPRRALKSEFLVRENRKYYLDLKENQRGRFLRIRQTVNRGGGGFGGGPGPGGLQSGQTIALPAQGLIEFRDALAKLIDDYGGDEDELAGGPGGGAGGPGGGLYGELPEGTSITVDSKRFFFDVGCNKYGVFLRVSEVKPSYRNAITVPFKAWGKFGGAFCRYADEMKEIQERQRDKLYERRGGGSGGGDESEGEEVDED
As to the kind of experiment: competition.

Data set [2] has as its target T1, N-HisPurβ (Purine-rich element binding …). As to the kind of experiment: competition. The source holds these as a separate data set.
Data set [3] has the same target. Kind of data set: competition. The source holds these as a separate data set.
Data set [4] has the same target. As to the kind of experiment: EMSA. (In general: A gel shift assay detects complexes by their altered migration in electrophoresis.)
Data set [5] has the same target. Kind of data set: competition. The source holds these as a separate data set.
For data set [6] the target is unchanged. As to the kind of experiment: competition. This is another data set of the same source.
Data set [7] has the same target. Kind of data set: competition. The source holds these as a separate data set.

B1: PE32-F-IT7 (ssDNA)
DNA: GGGAGCAGAACAGTTTTTTTCAGTGGAAGAGA
Regarding B1, the binding result in data set [1] was “binds”.

B2: PE32-F-3T7 (ssDNA)
DNA: GGGAGCAGAACAGAGGAATGCAGTTTTTTTTA
Take B2: the binding result in data set [1] is reported as “binds”.

B3: PE32-F-35T7 (ssDNA)
DNA: TTTTTTTGAACAGAGGAATGCAGTTTTTTTTA
B3: the binding signal in data set [2] was > 50 fold IC50 increase vs PE32-F.

B4: PE32-F-5T7 (ssDNA)
DNA: TTTTTTTGAACAGAGGAATGCAGTGGAAGAGA
Regarding B4, the binding signal in data set [3] was ~4 fold IC50 increase vs PE32-F.

B5: PE32-F (PE32-F*, PE32-bF, PE32-F-3FLC) (ssDNA)
DNA: GGGAGCAGAACAGAGGAATGCAGTGGAAGAGA
A word on the Kd: it is a measure of binding affinity in units of concentration. In data set [4], B5 showed a Kd of approximately 0.3 nM. Further, in data set [5], the binding signal is 1 fold IC50 (reference).

B6: PE32-F-3I5T7 (ssDNA)
DNA: TTTTTTTGAACAGTTTTTTTCAGTTTTTTTTA
As to B6, the binding result in data set [6] is “no binding”.

B7: dT32 (ssDNA)
DNA: TTTTTTTTTTTTTTTTTTTTTTTTTTTTTTTT
For the molecule B7, the binding result in data set [7] is “no binding”.

The values are drawn from PMC2752054.
